Test results from patent US20260049134A1 (UNIVERSITY OF FLORIDA RESEARCH FOUNDATION, published 2026).

T1: PTPRG-Fc (ECD of human PTPRG, aa 20-736, fused to human Fc gamma 1) (human, UniProt P23470 20-736)
T1 construct: Made in-house in Expi293 cells; Used in ELISA and SPR; also called recombinant PTPRG-Fc; PTRPG; not shown: human IgG1 Fc (Fc gamma 1) after the hinge
T1 sequence: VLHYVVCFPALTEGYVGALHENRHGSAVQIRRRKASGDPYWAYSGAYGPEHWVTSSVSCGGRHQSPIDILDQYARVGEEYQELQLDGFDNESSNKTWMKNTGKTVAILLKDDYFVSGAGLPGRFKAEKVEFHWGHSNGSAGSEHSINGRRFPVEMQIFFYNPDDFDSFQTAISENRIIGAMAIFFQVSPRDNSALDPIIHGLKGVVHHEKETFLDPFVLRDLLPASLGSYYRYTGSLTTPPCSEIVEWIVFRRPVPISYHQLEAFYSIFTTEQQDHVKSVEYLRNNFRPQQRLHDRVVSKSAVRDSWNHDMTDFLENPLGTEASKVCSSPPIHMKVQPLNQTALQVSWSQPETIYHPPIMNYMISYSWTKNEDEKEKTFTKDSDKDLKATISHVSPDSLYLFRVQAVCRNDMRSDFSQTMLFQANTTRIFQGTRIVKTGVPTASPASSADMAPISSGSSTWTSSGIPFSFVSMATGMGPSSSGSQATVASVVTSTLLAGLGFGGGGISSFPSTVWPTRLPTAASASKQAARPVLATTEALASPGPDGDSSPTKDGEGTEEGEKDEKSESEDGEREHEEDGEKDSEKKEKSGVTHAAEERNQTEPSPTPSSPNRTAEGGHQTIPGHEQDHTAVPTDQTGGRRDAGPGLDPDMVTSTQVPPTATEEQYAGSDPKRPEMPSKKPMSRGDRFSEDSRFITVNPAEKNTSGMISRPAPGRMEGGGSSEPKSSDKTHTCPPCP

T2: CADM1-His (Acro Biosystems) (human, UniProt Q9BY67 45-374)
T2 construct: Bought; also called CADM1/IGSF4A; not shown: His tag of the bought protein
T2 sequence: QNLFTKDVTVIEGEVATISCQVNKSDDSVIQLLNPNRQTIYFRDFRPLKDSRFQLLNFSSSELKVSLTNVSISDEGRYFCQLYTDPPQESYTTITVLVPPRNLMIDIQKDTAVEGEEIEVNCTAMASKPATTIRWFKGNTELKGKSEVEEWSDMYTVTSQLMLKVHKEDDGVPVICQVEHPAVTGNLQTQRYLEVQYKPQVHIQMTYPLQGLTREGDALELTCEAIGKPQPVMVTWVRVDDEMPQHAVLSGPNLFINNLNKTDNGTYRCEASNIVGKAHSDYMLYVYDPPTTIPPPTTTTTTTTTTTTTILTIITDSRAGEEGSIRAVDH


Key:
[1] = molecular target: T1, PTPRG-Fc (ECD of human PTPRG, aa …); assay: ELISA on coated protein
[2] = molecular target: T2, CADM1-His (Acro Biosystems); assay: ELISA on coated protein
[3] = molecular target: T1, PTPRG-Fc (ECD of human PTPRG, aa …); assay: ELISA on coated PTPRG-Fc
Protocol: Recombinant purified ECDs (50-150 ng) of each putative target protein were coated, incubated with 150 ng of the indicated primary antibody, and binding was detected using a peroxidase-conjugated anti-human Fab secondary antibody. Heatmap represents averages of technical triplicates. (8B) Target validation via siRNA knockdown. H929 cells were transfected with siRNA pools targeting the putative antibody targets ICAM1, CADM1, and PTPRG. Cells were then subjected to cognate IgG binding analysis via flow cytometry. (NT, non-targeting siRNA).
ELISA ELISA was conducted as described previously. Briefly, 50-150 ng of antigen was coated overnight in half-area 96-well plates at 4° C., blocked with 3% BSA at 37° C. for 1 h, and 150 ng of chimeric rabbit/human IgG1 was added, incubating for 2 h at 37° C. […] After incubating at 37° C. for 15 min-1 h (depending on intensity of controls), data were acquired using a SpectraMax M5 plate reader (Molecular Devices).

[4] = molecular target: T3, PTPRG, endogenous in H929 multiple myeloma cells (human, UniProt P23470 20-1445); assay: flow cytometry, H929 + CADM1 siRNA; None 449
T3 construct: Native protein on H929 cells (flow cytometry, siRNA knockdown) and in H929 lysates (IP/MS); also called phosphatase receptor type γ

[5] = molecular target: T3, PTPRG, endogenous in H929 multiple …; assay: flow cytometry, H929 + ICAM1 siRNA; None 1.06
[6] = molecular target: T3, PTPRG, endogenous in H929 multiple …; assay: flow cytometry, H929 + PTPRG siRNA (target knocked down); None 490

T3 sequence (P23470 20-1445 limits assumed): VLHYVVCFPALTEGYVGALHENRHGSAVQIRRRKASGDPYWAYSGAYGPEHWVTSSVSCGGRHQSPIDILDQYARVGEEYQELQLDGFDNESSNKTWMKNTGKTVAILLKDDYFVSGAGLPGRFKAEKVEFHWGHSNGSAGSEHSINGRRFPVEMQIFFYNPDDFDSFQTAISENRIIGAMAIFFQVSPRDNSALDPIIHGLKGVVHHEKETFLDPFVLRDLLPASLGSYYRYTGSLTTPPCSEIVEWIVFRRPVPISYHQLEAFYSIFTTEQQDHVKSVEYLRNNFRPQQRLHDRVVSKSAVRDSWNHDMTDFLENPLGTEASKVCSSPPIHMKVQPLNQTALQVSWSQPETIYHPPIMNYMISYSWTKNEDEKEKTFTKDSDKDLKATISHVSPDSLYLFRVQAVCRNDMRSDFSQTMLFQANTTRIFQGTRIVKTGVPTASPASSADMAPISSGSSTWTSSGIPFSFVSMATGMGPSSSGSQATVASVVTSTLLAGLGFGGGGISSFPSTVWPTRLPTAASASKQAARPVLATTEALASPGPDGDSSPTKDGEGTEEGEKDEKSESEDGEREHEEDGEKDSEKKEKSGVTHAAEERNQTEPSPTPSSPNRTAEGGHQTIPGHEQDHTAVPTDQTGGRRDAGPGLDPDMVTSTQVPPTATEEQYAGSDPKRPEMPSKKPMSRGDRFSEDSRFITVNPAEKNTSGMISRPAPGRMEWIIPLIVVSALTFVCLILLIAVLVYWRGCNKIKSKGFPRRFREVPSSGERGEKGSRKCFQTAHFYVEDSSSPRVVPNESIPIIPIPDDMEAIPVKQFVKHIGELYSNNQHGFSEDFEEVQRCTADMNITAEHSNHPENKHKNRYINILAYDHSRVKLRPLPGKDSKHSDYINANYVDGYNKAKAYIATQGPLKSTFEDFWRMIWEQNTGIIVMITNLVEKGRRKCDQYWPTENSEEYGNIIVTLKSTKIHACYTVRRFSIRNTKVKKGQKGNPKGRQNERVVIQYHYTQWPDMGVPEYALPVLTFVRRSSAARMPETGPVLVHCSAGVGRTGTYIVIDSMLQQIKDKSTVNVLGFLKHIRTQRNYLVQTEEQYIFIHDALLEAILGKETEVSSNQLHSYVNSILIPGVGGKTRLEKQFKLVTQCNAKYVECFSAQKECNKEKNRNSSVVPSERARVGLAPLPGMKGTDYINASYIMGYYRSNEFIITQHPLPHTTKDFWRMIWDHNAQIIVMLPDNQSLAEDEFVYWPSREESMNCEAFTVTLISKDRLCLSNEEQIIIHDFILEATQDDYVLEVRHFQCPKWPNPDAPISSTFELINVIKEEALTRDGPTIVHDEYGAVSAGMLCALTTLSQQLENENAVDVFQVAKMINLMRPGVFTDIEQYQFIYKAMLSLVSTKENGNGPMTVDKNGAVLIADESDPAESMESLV

Row | Binder | binding result [1] | binding result [2] | binding result [3] | mAb binding (MFI) [4] | Cells stained (%) [5] [%] | mAb binding (MFI) [6]
1 | HW-8 chimeric rabbit-human IgG1 LA/LA/PG (antibody, V domains shown, Fc-silenced (L234A/L235A/P329G) IgG1, kappa; Alexa Fluor 647-labeled in single-step flow cytometry; Cluster C-45) VH: QSLEESGGRLVTPGTPLTLTCTVSGFSLSSYAMSWVRQAPGKGLEWIGAISTGGSTTYASWAKGRFTISKTSSTTVDLKMTSLTTEDTATYFCVRHFRLWGPGTLVTISS VL: QVLTQTPSSVSAAVGGTVTIKCQASQSIGSALAWFQQKPGQRPKLLIYRASNLASGVPSRFKGSGSGTEFALTISGVQREDAATYYCLGGAAAVWAFGAGTNVEIKR | no binding (tested: 150 ng IgG1 per well) | no binding (tested: 150 ng IgG1 per well) | – | – | – | –
2 | HW-56 chimeric rabbit-human IgG1 LA/LA/PG (antibody, V domains shown, Fc-silenced (L234A/L235A/P329G) IgG1, kappa; Alexa Fluor 647-labeled in single-step flow cytometry; Cluster C-45) VH: QSVKESEGGLFKPTDTLTLTCTASGFTVSTNAVTWVRQAPGNGLEYIGTIGRSGSAYFASWAKRRSTLTRDINLNTVTLKMTSLTAADTATYFCVRGSPGYRTAISIWGPGTLVTISS VL: AVMTQTPSSTSAAVEGTVTINCQASQSISNRLSWFQQKPGQPPKLLIYQASTLASGVPSRFKGSGSGTEFTLTISGVQREDAATYYCLGSYSSSDASFGGGTKLEIKR | – | – | no binding (tested: 150 ng IgG1 per well) | – | – | –
3 | TH9-0022 (antibody, human IgG1, kappa, L234A L235A, V domains shown, also called TH9-022; negative control IgG1) VH: QSLEESGGRLVTPGTPLTLTCTVSGFSLSSYAMNWVRQAPGKGLEWIGIINSYGSTYYASWAKGRFTISKTSTTVDLKITSPTTEDTATYFCARVTYDSYGYGYAPYGMDLWGPGTLVTVSS VL: LVMTQTPSSTSNAVGGTVTIKCQASQSIGNVLAWYQQKPGQPPKLLIYAASTLASGVPSRVGGSRSGTEYTLTISGVQREDAATYYCLGSDSDSDIAFGGGTELEILR | no binding (tested: 150 ng IgG1 per well) | no binding (tested: 150 ng IgG1 per well) | – | – | – | –
4 | HW-42 chimeric rabbit-human IgG1 LA/LA/PG (antibody, V domains shown, Fc-silenced (L234A/L235A/P329G) IgG1, lambda; Alexa Fluor 647-labeled in single-step flow cytometry; Cluster C-1) VH: QSVKESEGGLFKPADTLTLTCTVSGFSLSSNEISWVRQAPGEGLEYIGIIDTGGRAYYAVWARSRSTITRNTNLNTVTLKMTSLTAADTATYFCARGGVDTEWYAFSSWGPGTLVTVPS VL: SFVLTQPASVQVNLGQTVSLTCTADTLSRRYASWYQQKPGQAPVLLIFRDTSRPSGVPDRFSGSSSGDTATLTISGAQAGDEADYYCATSDGSGSNYQYVFGGGTQLTVTG | – | – | – | 9210 | 96.9 | 649
5 | HW-113 chimeric rabbit-human IgG1 LA/LA/PG (antibody, V domains shown, Fc-silenced (L234A/L235A/P329G) IgG1, lambda; Alexa Fluor 647-labeled in single-step flow cytometry) VH: QKQLVESGGGLVQPGGSLTLTCTVSGFSLNKYYMGWFRQAPGKGLEWIGVISRSGDTYYSSWAKGRFTISKASTTVDLRITSPTTEDTATYFCARDASSPGFHGDRLDLWGQGTLVTVSS VL: SFVLTQPASVQVNLGQTVSLTCTADTLSRSYASWYQQKPGQAPVLLIYRDTSRPSGVPDRFSGSSSGNTATLTISGAQAGDEADYYCATSDGIGSNYLWVFGGGTQLTVTG | no binding (tested: 150 ng IgG1 per well) | no binding (tested: 150 ng IgG1 per well) | – | – | – | –
6 | HW-1 chimeric rabbit-human IgG1 LA/LA/PG (antibody, V domains shown, Fc-silenced (L234A/L235A/P329G) IgG1, lambda; Alexa Fluor 647-labeled in single-step flow cytometry; Prototype of cluster C-1) VH: QSLEESGGGLFKPTDTLTLTCTASGFSLGSSYAISWVRQAPGKELEWIGTIDSGRAYYARWAKSRSTITRNTNENTVTLKMTSLTAADTATYFCARDLIPTYSQDIWGPGTLVTISS VL: SFVLTQPASVQVNLGQTVSLTCTADTLSRRYASWYQQKPGQAPVLLIYRDTSRPSGVPDRFSGSSSGNTATLTISGAQAGDEADYYCATSDGSGNSYQYVFGGGTQLTVTS | – | no binding (tested: 150 ng IgG1 per well) | – | 17500 | 98.2 | 1140
7 | HW-28 chimeric rabbit-human IgG1 LA/LA/PG (antibody, V domains shown, Fc-silenced (L234A/L235A/P329G) IgG1, lambda; Alexa Fluor 647-labeled in single-step flow cytometry; Cluster C-45) VH: QKQLVESGGRLVTPGTPLTLTCTASGFSLSSNAMSWVRQAPGEGLQWIGTISSGGSTYYASWAKGRFTISKTSTTVTLKMTSLTTEDTATYFCARGADLHRLWGPGTLVTVSS VL: SFVLTQPASVQVNLGQTVSLTCTGKPLSRSFASWYQQKPGQAPVLVIYRDTSRPSGVPDRFSGSSSGNTATLTISGAQAGDEADYYCATSDGSGSSYQYVFGGGTQLTVTG | – | – | no binding (tested: 150 ng IgG1 per well) | – | – | –
8 | HW-17 chimeric rabbit-human IgG1 LA/LA/PG (antibody, V domains shown, Fc-silenced (L234A/L235A/P329G) IgG1, lambda; Alexa Fluor 647-labeled in single-step flow cytometry; Cluster C-1) VH: QSLGESRGRLVTPDETLTLTCTVSGIDLSSNAMSWVRQAPGEGLEWIGTINTGGRAYYASWAKGRFTISRTSTTVDLKMTSLTTEDTATYFCARERYSDGRAYDIWGPGTLVTISS VL: SFVLTQPASVQVNLGQTVSLTCTADTLSRRYASWYQQKPGQAPVLLIYTDSNRPSGIPDRFSGSSSGNTATLTISGAQAGDEADYYCATDDGSGSIYQYVFGGGTQLTVTG | – | no binding (tested: 150 ng IgG1 per well) | – | 21000 | 98.4 | 1160
9 | HW-70 chimeric rabbit-human IgG1 LA/LA/PG (antibody, V domains shown, Fc-silenced (L234A/L235A/P329G) IgG1, lambda; Alexa Fluor 647-labeled in single-step flow cytometry; Cluster C-1) VH: QSLEESGGRLVTPGTPLTLTCTVSGFSLSSNAMSWVRQAPGKGLEWIGTIDGYGYTYYASWAKGRFTVSKTSTTVDLKITSPTTEDTATYFCAREIYLGSNFWGPGTLVTISS VL: SFVLTQPASVQVNLGQTVSLTCTADTLSRRYASWYQQKPGQAPVLLIYRDTSRPSGVPDRFSGSSSGNTATLTISGAQAGDEADYYCATADGSGSSYQFVFGGGTQLTVTG | – | – | – | 13800 | 97.4 | 840
10 | HW-25 chimeric rabbit-human IgG1 LA/LA/PG (antibody, V domains shown, Fc-silenced (L234A/L235A/P329G) IgG1, lambda; Alexa Fluor 647-labeled in single-step flow cytometry; Cluster C-1) VH: QSLEESGGRLVTPGTPLTLTCTVSGFSLSSYAMGWVRQAPGKGLEWIGIIDSRGSTYYATWAKGRFTISKTSTTVDLKITSPTTEDTATYFCAREDSYYYDSFNLWGPGTLVTVSS VL: SFVLTQPASVQVNLGQTVSLTCTADTLSRRYASWYQQKPGQAPVLLIYRDTSRPSGVPDRFSGSSSGNTATLTISGAQAGDEADYYCATSDGSGSSYQCVFGGGTQLTVTG | – | – | – | 8720 | 97.2 | 839
11 | HW-81 chimeric rabbit-human IgG1 LA/LA/PG (antibody, V domains shown, Fc-silenced (L234A/L235A/P329G) IgG1, lambda; Alexa Fluor 647-labeled in single-step flow cytometry; Cluster C-45) VH: QKQLVESGGGLVTPGGTLTLTCTVSGFSLSSNGVSWVRQAPGKGLEYIGLIRSIGSTYYATWAKGRFTISKTSTTVDLKITSPTTEDTATYFCARGGYRNGFKLWGPGTLVTVSS VL: QPVLTQSPSVSAALGASAKLTCTLSSAHKTYYIEWYQQQHPGKAPRYLMQLQSDGSYTKGTGVPDRFSGSSSGADRYLIISSVQAEDEADYICGVIDSAVYVFGGGTQLTVTG | – | – | no binding (tested: 150 ng IgG1 per well) | – | – | –
